Test results as given in the DeepSol protein solubility set.

Test: soluble on expression in E. coli; label from the status in PepcDB or PDB records

Sequence	soluble on expression in E. coli
LPQSVSRAAITAAYRRPETEAVSMLLEQARLPQPVAEQAHKLAYQLADKLRNQKNASGRAGMVQGLLQEFSLSSQEGVALMCLAEALLRIPDKATRDALIRDKISNGNWQSHIGRSPSLFVNAATWGLLFTGKLVSTHNEASLSRSLNRIIGKSGEPLIRKGVDMAMRLMGEQFVTGETIAEALANARKLEEKGFRYSYDMLGEAALTAADAQAYMVSYQQAIHAIGKASNGRGIYEGPGISIKLSALHPRYSRAQYDRVMEELYPRLKSLTLLARQYDIGINIDAEESDRLEISLDLLEKLCFEPELAGWNGIGFVIQAYQKRCPLVIDYLIDLATRSRRRLMIRLVKGAYWDSEIKRAQMDGLEGYPVYTRKVYTDVSYLACAKKLLAVPNLIYPQFATHNAHTLAAIYQLAGQNYYPGQYEFQCLHGMGEPLYEQVTGKVADGKLNRPCRIYAPVGTHETLLAYLVRRLLENGANTSFVNRIADTSLPLDELVADPVTAVEKLAQQEGQTGLPHPKIPLPRDLYGHGRDNSAGLDLANEHRLASLSSALLNSALQKWQALPMLEQPVAAGEMSPVINPAEPSSSVDKLAAALEHHHHHH	soluble
NPIEMDYIRQIEDVNNRRMKALRPPHRKEVLKAREDDIKDRVQNWMSRENEPRLQRISSELLKEYDSTELVASLLQELVEANDEVE	not soluble
MGSDKIHHHHHHMGNPRAFLTIHRQEAGYRPVHERIDDFSEVEQTLNSGDRRTQASRCMDCGVPFCHWACPLGNKQPEWQDLLYKGRYKEAYHVLEQTDDFPEFTGRVCPALCEKSCVLKLSCDEPVTIRENEAAIVEAAFREGYVQPIQPVRNGKKVAVIGSGPAGLTVANQLNRKGYEVTVFEKDELPGGLLRFGIPNFKLGKHIIDRRIRIMEQEGILFRVNTMVGKEILAKDVVKDFDAVCVAIGAEVPRDLSIEGRHLRGVHFALELLSQQNRILEGIPIPPKSQINCKGKKVLVIGGGDTGSDCVGTANRHGAACVTQIEIMPQPPVGQNPATPWPMYPQVLKTSSSHEEGCIRRWNLASNRFIGEKNNLIGVEVEEVEWVPSPDGGRPQMRQTGKKEIIEADLVFLAMGFLHPVQEGLIKELRLATDNRNNIAVDNAGYTANSNLFACGDAVSGASLVVKAMASGRNVARSIDRFLQTN	not soluble
MHIPENLYVVGTMNIADRSLALVDLALRRRFAFVGLEPRLGQVWRDWVVKECAVDPGLVADIERRIAELNDQIAADARLGKQFRIGHSYVTPAHRLEAGDTKKWFLQVVETEIGPLLDEYWFDAPDEAQKAIARLTQGLEHHHHHH	not soluble
MTKTVEMVITGAQVLNVYTREFEATSLWIDHGRIISNLRDEPYIAAQHVDATGQWIVPGMIDAHVHMESSMVAPSELGKVLLQHGVTTIATDPHELANVAGLEHHHHHH	not soluble
MSLTAPRILMTRPDHYGVTYAINPWMTPESWAGNQTVALAEAATQWQALADALGAVGFALEILPGQPGLPDMVFPANAAIVFDGIALVARFRHPERQGEEAHFHAAFEALRQRGLLSAVHSLPEGVFQEGAGDCLWDASRQLFFAAHGPRSSRASIEVIAETFGQEIVRLELVDPRFYHLDTCFCVLPGGEVLTFTPALSTASLERLRAVVAPEMLIEADFAAASAFSINAVAHGREVVMANPPASLRALLEERGYHVHGLELGRFMQSGGGSYCMTLRLDRRARAEGHHHHHH	soluble
MSMSSMSSPSSAVCSPDHFSPSDHLCYVQCNFCQTILAVNVPYTSLFKTVTVRCGCCTNLLSVNMRSYVLPASNQLQLQLGPHSYFNPQDILEELRDAPSNMNMMMMNQHPTMNDIPSFMDLHQQHEIPKAPPVNRPPEKRQRVPSAYNRFIKEEIQRIKAGNPDISHREAFSAAAKNWAHFPHIHFGLVPDNQPVKKTNMPQQEGEDNMVMKEGFYAPAAANVGVTPY	soluble
MKPATFKEAVVLYEGMIVNQIKKLGIRKDYEEYYQCGLIGLWHAYERFDEKKGYFPAYAVVTVRGYILERLKKEFAVQERCVCVGEYEDIFHFEDVEIRVKDFMSVLDEKEKYIIFERFFVGKTMGEIALETEMTYYQVRWMYRQALEKMRDSVKG	not soluble
MKDESERVSNRLPMDESREHLMVKVARMTYQQELNQSEIAAETGLNRWQVSRLLQEARDLGIVRIEIIPRSPRRPDLETALQQTFNLNDSVVVSSDGEQAQSLDTVAQAAGQYIASIKSNGATVGVSWGRTMGAVAHWLPLQWSDGGEVVQINGTVAPISGVTYHNDVAGIFARKAGARLVPLPVPAIVGQRVTREVLERDRIVADVLTKARSAQILIFSCGSLSEESVLVRSGNILRDELATLLSKGAVGDVLGRFIDVNGEIVDAELDARTIGLSLSDLKTSGKAIGIAAGSEKFNVVLGVLRAGLVNVLVTDEATATFALEHA	not soluble
MSSLTLTDKVSKMIHQDILSGKLKPGQKLVVAELKERYNVGASPIREALVQLSWNKYVKLEPQKGCWVASISLSELKELFESLRTIGQVLLAKAITNGNENWELNVLTSFHKLNKINLQDAKIEELREWENRYTDFHNSLLEGAQSPIMYQFYQDISHQITRYRHLNNNPQVISETYAQYLEEHEIMMKLTLSRDSEQAIKYLNNHYSKASDLISTYFSA	not soluble
MSLQFVSKARKGLVPQRCHRFQSCAYRSNQWRYRGRCDSIQFAVDKRVFIAGFGLYGSSCGSAEYSAKIEMKRQGVVLGQNLSKYFSDGSSNTFPVWFEYPVQIEPDTFYTASVILDGNELSYFGQEGMTEVQCGKVTVQFQCSSDSTNGTGVQGGQIPELIFYAEGHHHHHH	not soluble
MSLAYGIRLLVWGERACFTRPEMKVERVSYDVITPSAARGILEAIHWKPAICWVVDRIHVLKPIRFESIRRNEVGGKLSAASVGKAMKAGRTDGLIALADEDRQQRAATVLRDVSYVIEAHFELTARADASDSEGKHLDIFNRRARKGQYFHAPCLGVREFPASFELIEPDDVLPAVPADLRGERELGWMLHDIDFANDMTPHFFRAVMRDGVIEVPALRSEGVKAEGHHHHHH	soluble
MGSDKIHHHHHHMYYEKAVQKTINWIESHLHEQISNEDIVNVSSFSKFHFHRIFQKEVGMSVASYIRLRRLANAAAALLYTDHRIIDIALYYQFESQEAFTRTFKKMYHMPPGAYRTFMKRFTSKKEESYMEKKMKGWVLSGSHPFQFEMGIDRENVHQGKASGYLKSTMVQDIGEFATMMQQFKADRYLGKRLRLSSFIKTKGVQHFASLWMRVDSAADDVLQFDNMSNRPITGTTNWNHYAIVLDVPENSAVISFGVQLSGPGQVWMDHVVFEEVDESVPSTNLEMPGELLDEPVNLSFEEELQK	not soluble
MGSDKIHHHHHHMKKIAVLTSGGDAPGMNAAVRAVVRYGVRQGLEVIGVRRGYSGLIDGDFVKLEYKDVAGITEKGGTILRTSRCEEFKTEEGRELAAKQIKKHGIEGLVVIGGEGSLTGAHLLYEEHKIPVVGIPATIDNDIGLTDMCIGVDTCLNTVMDAVQKLKDTASSHERAFIVEVMGRHSGYIALMAGLVTGAEAIIVPEIPVDYSQLADRILEERRRGKINSIIIVAEGAASAYTVARHLEYRIGYETRITILGHVQRGGSPTAFDRRLALSMGVEAVDALLDGEVDVMIALQGNKFVRVPIMEALSTKKTIDKKLYEIAHMLS	not soluble
MNLHEYQAKEILARYGVPVPPGKVAYTPEEAKRIAEEFGKRVVIKAQVHVGGRGKAGGVKLADTPQEAYEKAQAILGMNIKGLTVKKVLVAEAVDIAKEYYAGLILDRAKKRVVLMLSKEGGVDIEEVAAERPEAIHKFWIDPHKGFRPFEAREMVKRAGLEGNLNKLAQVLVALYRAYEGVDASIAEINPLVVTTDGGIVAADAKIVLDDNALFRHPDLAELREVEAEHPLEVEASNYGFAYVKLDGNIGIIGNGAGLVMYTLDLVNRVGGKPANFLDIGGGAKADVVYNALKVVLKDPDVKGVFINIFGGITRADEVAKGVIRALEEGLLTKPVVMRVAGTAEEEAKKLLEGKPVYMYPTSIEAAKVIVAMVGGAA	soluble
